The values below come from the DeepSol protein solubility set.

The nature of the data set: soluble on expression in E. coli; label from the status in PepcDB or PDB records.
Take “MTTEQEFEKVELTADGGVIKTILKKGDEGEENIPKKGNEVTVHYVGKLESTGKVFDSSFDRNVPFKFHLEQGEVIKGWDICVSSMRKNEKCLVRIESMYGYGDEGCGESIPGNSVLLFEIELLSFRELE”: the “soluble on expression in E. coli” value was “soluble”. “MGSSHHHHHHSSGLVPRSHMEQLEEDCVHRYGVNAFVLYRLPVVKEGMVVGIVGPNGTGKSTAVKILAGQLIPNLCGDNDSWDGVIRAFRGNELQNYFEKLKNGEIRPVVKPQYVDLIPKAVKGKVIELLKKADETGKLEEVVKALELENVLEREIQHLSGGELQRVAIAAALLRNATFYFFDEPSSYLDIRQRLNAARAIRRLSEEGKSVLVVEHDLAVLDYLSDIIHVVYGEPGVYGIFSQPKGTRNGINEFLRGYLKDENVRFRPYEIKFTKTGERVEIERETLVTYPRLVKDYGSFRLEVEPGEIKKGEVIGIVGPNGIGKTTFVKMLAGVEEPTEGKIEWDLTVAYKPQYIKADYEGTVYELLSKIDASKLNSNFYKTELLKPLGIIDLYDREVNELSGGELQRVAIAATLLRDADIYLLDEPSAYLDVEQRLAVSRAIRHLMEKNEKTALVVEHDVLMIDYVSDRLMVFEGEPGKYGRALPPMGMREGMNRFLASIGITFRRDPDTGRPRANKEGSVKDREQKEKGEYYYIA”: the “soluble on expression in E. coli” value was “soluble”. The value for “MSLKRIYGSNRYETSIMVSKEGWDKSSYAVISRGDNFADALCAVPLSKKYNAPILLIGKDKLNNNLKSELKRLNVSKVFITGGEGVISKTLEGEIKNIPNIKEVKRLGGKDRYETSKLIAESVGCNGEIVVTAGTNSSDTLSISPIAANKNMPILLTAKDKNLMQKYLKSNKVNKTFVIGGEKCVSKEIENILPNVERIYGENRYETNEKIIKRFSNSLDFKNVYIALAQSQRGDEFADALSSAALAAQKNSPIILIYKDIYKNTKDILNTKLSNESIVSILGGEKLISDNILDNLAISKNEGHHHHHH” was “not soluble”. Take “MGSDKIHHHHHHMNILITGMAGFIGHAVAKRLAAEGHDIVGIDNLNDYYDVSLKQARLDDLAAWPNVRFERLDLADRAGMERLFADTRFERVIHLAAQAGVRYSLDNPHVYAQSNLVGHLNVLEGCRHQQVPHLIYASSSSVYGQNAQVPFSTADAVDHPISLYAATKKANELMTHSYSHLYGIPATGLRFFTVYGPWGRPDMAMFKFTRAILADEPLPVFNHGDLSRDFTYIDDIVEGVVRIMQAIPEADPDSPGASPDQSTAPFALYNIGHGSPVALMDFVHALERATGRTARCDFKPMQPGDVPRTWADTDALFEKVGYRPQVGVDEGVARFVEWYRSFHGI”: the “soluble on expression in E. coli” value is reported as “not soluble”. For “MGSDKIHHHHHHMRYSPESLLAFITTVDAGSFSAAARRLHKSQSTISAAIANLEADLGLTLFDRAGHQPVLTLAGRKVLSHVQAILSASEELDELAIRLADHIEPRLTFVLSDIWQATHYEPVIQRFAHNFPDIEFECLVAEGDDVIDLLQMDRAHVGLLRAQTDYPPDIAAARLQVKTEMAVFVSVAHPLATEKTVTRSQLATVRQLYLNTYKRSDRLQPEGIVWSAPSYLMLLEMAQQGHGWSSLPRWLVAQYDRQKLVELPVSGWPQWIDVDVVWSKPHPPGPAGLWMIDNLLAQQESTPP” the value was “not soluble”; for “NSFFKTGWKRFYLKWYGQDHPSAQALCPYTTELLKQFPNIKAAMFTALPPGSRLVRHRDPFAGSVRYHLGLITPNDDRCYIDVDGQQYSWRDGEAVIFDETYLHYAENTTDQNRIILFCDVERPMWFWPARVVNRIVSRVLVGAANSPN”, “not soluble”; for “MAGQADNRAPYAKIAAHYTELITSGQLQPGSLLPSIKNLAEEWNVSTATAEKALRKLRNEGLVRGIHGIGTEVLDQPAPMSSGAQRQDRGRRTGSSWGAGERSDSHKAAVVPAPAEVAHALDIEPGSDVIRRSRVYRDRHGIVAHSTSWIPARFGRLIPQLAASERLTGGTSLQLIAQVTGHPITHRVDSASARLLTPEYTRLLELDPENPPAEPVVVMTAKFVDSEGTVVEYGVDLGGPGRTWRTESEVTQ”, “soluble”. The value for “MAHHHHHHMRRVLLFRNRVDFVATLLQQGRLADMLMLQHFTSRTPQKPPAGNAAERNSGGTKVSVGETSRRALLTRCEAVKAKAMSTPCTDWLADAYGSGEWCALSESRDMVRVVASDNDPTRVKLRGTFPVLVQEGSSPASVRLAASKESGEALIVTVPLVQSGEKVRSSAIGGGIRAVTLKEADGSVVSDAATSVDAFAAEQNILSAAVCSGILGKLEEICALHATHTVRYDALLVRNPAVQKRLSQLACARFSLDALSSFVASAAVDEPMPLVESVALRMHAKHALAIGMGSARDIIHGTAMLKASPHRSKPERLIDYPYAQQLFASERYVLSSLGASSAAETMRHFTPLLMQPQTHMPAGVQGPLASLLLGGKGGNVNLAAPHANLRVSAAFLEKDIAAMLQRIQQQKKRADPLFVMAIAQYVAELFANTAVVYRTTASLTHEDDSAPRDWLLTQAFCADSSARRATILCEWDLSSAARKAIGKAADLNGCTTHPVELMNAEPARKPKVPSKSAAASVTQEAN” was “not soluble”; that for “MKIALIQQKFHLNKEQTIKKTCEFIEEASKQGAELVCLGELHQSEYFCQSENVDFFDYANDYEKDVKFWANIARKNQIVLIASLFEKRSAGLYHNTAVVFEKDGSIAGKYRKMHIPDDPCFYEKFYFTPGDLGFEPINTSLGKLGVLICWDQWYPEAARIMALKGAEILIYPTAIGWFDKDKDEEKQRQLNAWLGVQKGHAIANGLYVVAINRVGFEKDVSGVEEGIRFWGNSFVFGPQGEELCLLDSQNECVKIIEIDKKRSENVRRWWPFLRDRRIEYFTDLTKRFID” was “soluble”. For “MTPYMANTKWVDGSVRSDFPQEKMARLYNLNYTIASQVNPHVVPFMQSDASRYRKDILSWPQRILRRQGKVISLGIMDFTRERLGNVPPVRRLLDHGYGIVGQRYYGDVNIIAPFNLRQYAYMLQNPRPHLFKLLQQQGERATLEHHHHHH” the value was “not soluble”; for “MTSKADYLKKYLSPASGDIEKKKKKKNKDKNKPSGLRLIEEDAFLSVDAAKTRDIGSDEEREEIEVLKQSVKKAKVVHGFKQTFAEVDAPKVIKPEPLSPDNSPPRGKRQRHDSDNSPPRPSRKRNDSDNSPPRPSRNRHDSDKDNSPPRRRRHDSDNSPPRPSRKIREESPSARNRRSPPRTRRDRHDSDNSPPRNRSRRDSDNSPPRRRPSSPARRRKDDDLSPPRKSRKIEEPKKIKKEEPDSDTETSGRTLEGKRSGLQSARDLKEESDKLRAKNSKMFEEMDTSVSGRFADTVYRQKQTKKKGKDSEEDQAKKERETKKTEELKEKYKSWNKGVAQIEDRRAQLEEMARVAAEPMARARDDDAMNAHLKEVLHAADPMANMIQKKRRDTAIDRGELVYPSYHGHFVPNRFGIAPGYRWDGVDRSNGFEGKLAKTENTKTANQSEYYKSIAEYE”, “not soluble”. For “SVTGIGSGFSELDEYTAGFQPSDMIIIAARPSAGKTAFALALARNAAVNFNTPVLFFSLEMAEIQLALRLMCAEAYVESQLVRRGQISPEMMNKIINSMDALADAKLFIDDTPGISIMELTAKTRRMKQEHGIGMVVVDYLQLVTPVRDGRSNREQEIAQISRSLKALAKELNIPVIALAQLNRSVEQRSGDRRPQLSDL”, the “soluble on expression in E. coli” value was “not soluble”. On to “MSLYEPADGILETHVTWEDVEKDLQQSLGTRATFGENKRATNISDLKGFMSRIACLEPDWQNIEEGKELPSKFALKISSQLALVALSKIMNFEEGAGFSEEKLKKFSSLTKECHNREVDAYKVLMKFNHPDIPYTKGYMIIDFVPNIQTVEMYKSISADTIIPIIRGVATFSALGERLSKEDQHFVMGPTYLEMIFEDFFNDVELKKKFDTLRTTFEETENQEKVEKLITVFEHYKSLVKKYTNISDILGVKLVLNHGDLSQPNVLFSLDPQNKLKLEAIIDWQCVSRMPPGLDTARLLLGCLSGQERRERGTELLKVYHETYTSVFGEELFTFQELQELFNLFAPMMAMMLLPVMPSSIQSAIIPEEDKVSALKEVKTKMIAMMEDILEIHDNNLNHFSDFMKI”, for which the “soluble on expression in E. coli” value is “not soluble”. The value for “TGPQGPPGPAGPKGAKGETGPQGPPGPAGPKGAKGDSGVPLSYEFTQKVESSNGTAVFGLLSNGFVEVRITGSYSSDVFNIPYNYRPLKAGTQMALFSTSGVGVAKVGEDKITIQGYSRNAQCSGTVLYPHREF” was “not soluble”.

“HQYSDLTINPSLGPASPTSFDDLATYRFEQWVNNLDITRAFDGLFGVPLQVSAGLEHRWERFRTFSGDAQAYQVGGYRFPASLPNGQASPLAGQLASIAAQAAAVISPQDATRLQRNNYAAYVDFGITPIEPLFVDLALRAEHFDDDSGNTVSAKLNSRYEFTDTFAVRGTVGTGFRAPSLTQTGYSISDNRVGAAPDGTIVPAVTRIAPVNSALAQALGATTLDPEKSRNLGVGVTWQPAPRTSLTADAYWIEIADRIARTESLYGPALAPTLTAQGVDTSTWTSYYANAFDTRTRGLDIVLD”: the “soluble on expression in E. coli” value is reported as “not soluble”. For “MSRLGYVMTKASAKNFKVYINGSARGYRNIIINGAKSWNPSPYLNTVTMGNDVKPNFTVSSSNTNKGSVLAVCNTTYYKSNKLIVKNEITLYKGFRSLSNNHKIETVAHEFGHGFGLGHVKTRNAIMLDKGFINKTKPQKLEHHHHHH” the value was “not soluble”; for “MGSDKIHHHHHHMTTSIDTLSAFVYAADLGSFSAAARRLGKSQSTISEAIANLEIDLGSSLFDRGTRAPTLTPAGRLLLPQARQIMAASQDLRRQAAQLNAGVETRLTIVLSDTFQSRTLESVACRLEERYPLLELECLVGEQEDVLDLILSGRAQLGLVGAMDSYPPDVRHQRQREASELALYAAHRHPLAGMDRIDEQQLDQHRQLRLNTYSDKTPADSGQRQWYAPSYLMLLDMARLGVGWAELPCWLVHSFGGGELKQLDVAGWPKRMPVDLVWAANKPLGAAAGWLLQQLTDGAEQR”, “not soluble”. For the sequence “MFAERLKELRKREAGLTQERLAMQLGMAKTTLASYEQGKRQPDLETLSKIADRFSVTTDYLLGKNGTPKWATKKDTIDLKDFLEANEGSMTYGGEDLTEEEKQQVRVAMATIFWKRHKHD”, the “soluble on expression in E. coli” value was “not soluble”. Consider “MSLENKETTTTTTTTNNGSDKKKRSLKIDLHTHILPKNWPNLKEKYGYGGWVSLDHHCSCKAKMMIDGKFFREIDSNCWDPDVRIQELNRDDVDIQVLSTVPVMFGYWAKPQDALDLAQYLNDHIAQVVSENPKRFIGLGSLPMQCTESSIQELRRCILELGLPGIQIGSNVNGKNLDDPSLFPIFEECEKLGAAVFIHPWEMVGKDRMPQYWLPWLVGMPAETCLAICSMIFGGVFQRLPNLKVCFAHGGGSFPFTIGRIEHGFNARPDLCAVVNPINPREYIGKFWVDSLVHDEEALKFLVNLMGEKKVTLGTDYPFPLGELVPGQLIESIKEFSETTKENLLGGNALEFLGLDPNKYLEGHHHHHH”, for which the “soluble on expression in E. coli” value is “soluble”.

Turning to “MQGYHHPLATNHQTQYGTVGQALHIARKLLPFIPDNAGILIVPCCRGGSAFTAGSEGTYSERHGASHDACRWGTDTPLYQDLVSRTRAALAKNPQNKFLGVCWMQGEFDLMTSDYASHPQHFNHMVEAFRRDLKQYHSQLNNITDAPWFCGDTTWYWKENFPHSYEAIYGNYQNNVLANIIFVDFQQQGERGLTNAPDEDPDDLSTGYYGSAYRSPENWTTALRSSHFSTAARRGIISDRFVEAILQFWRER”, the “soluble on expression in E. coli” value is “not soluble”. The value for “SLRILPQEPVIREEQNWLTILKNAISDPKLLLKALNLPEDDFEQSIAARKLFSLRVPQPFIDKIEKGNPQDPLFLQVMCSDLEFVQAEGFSTDPLEEKNANAVPNILHKYRNRLLFMAKGGCAVNCRYCFRRHFPYDENPGNKKSWQLALDYIAAHSEIEEVIFSGGDPLMAKDHELAWLIKHLENIPHLQRLRIHTRLPVVIPQRITDEFCTLLAETRLQTVMVTHINHPNEIDQIFAHAMQKLNAVNVTLLNQSVLLKGVNDDAQILKILSDKLFQTGILPYYLHLLDKVQGASHFLISDIEAMQIYKTLQSLTSGYLVPKLAREIAGEPNKTLYAE” was “soluble”.
